# Like-named read-outs stand apart in the source and are kept apart here.
# What was measured:
# [1] = Membrane off-binding rate (koff) of FtsA from FRAP
# Description: We could also use the data from these bleaching experiments to quantify the membrane-binding kinetics and diffusion of membrane-bound proteins by analysing the change of the fluorescence profile during recovery.
# Equimolar concentrations of Cy3- and Cy5-labelled FtsA, supplemented with 20% unlabelled FtsA were used to study FRET and FRAP. Five pre-bleach frames were acquired, followed by acceptor photobleaching of a rectangular ROI with 40% 641 nm laser power and a dwell size of 1 µs/pixel, 75% overlapping lines. The recovery of the signal or the increase in donor intensity were measured with either two frames or one frame per second.
# Bleaching the acceptor dye leads to an increase in the donor intensity, which can be used to quantify the Foerster Resonance energy transfer (FRET)[48]. FRET efficiency was quantified with E%=Ipost/Ipost+Ipre⋅100 , where Ipost is the intensity of the […] and Ipre is the […]. […] To extract the contribution of both processes, we adjusted a routine recently published by Gerganova et al.[33]. In short, the code provides the contribution of both modes of recovery by analysing the shape of the fluorescence recovery profile. […] Contribution of diffusion leads to a change of the slope of the outer borders of the bleached region (S4h right). Thus, by measuring the change of the slope of the border recovery, diffusion and simple on/off binding can be distinguished. We developed “FRAPdiff”, a graphical user interface, which uses the original fit routine by David Rutkowski. It can be used directly on.tiff movies with annotated bleach regions as ImageJ ROIs. In addition, we added optional bleach correction, user selectable projection axis (x or y), and optional mirroring of the recovery profiles, if bleaching was not symmetric. The original fit routine for estimating the recovery and diffusion dynamics can be found at https://github.com/davidmrutkowski/1DReflectingDiffusion. FRAPdiff is available at 10.5281/zenodo.6400639[49] under the GPLv3 open-source license.
# FtsZ [2] = settings: His-tagged FtsA
# Method: (§1) Co-treadmilling of FtsA with FtsZ relies on the dynamic exchange of FtsA on the membrane. […] To investigate the respective contributions of membrane binding kinetics and FtsA self-interaction on the colocalization dynamics with FtsZ, we wanted to create variants of the two FtsA proteins that are permanently attached to the membrane. […] Accordingly, in these experiments the proteins only differ in their tendency to form oligomers.
# (§2) To study colocalization of His-tagged variants of FtsA, 0.5–1 µM of Cy5 labelled His-tagged FtsAs were added to the chamber, incubated for 20 min and washed 6x with reaction buffer. […] To control the density of membrane-bound FtsA, SUVs without and with Tris-NTA lipids were mixed to obtain the respective Tris-NTA concentrations. To perform FRET/FRAP experiments, equimolar concentrations of Cy3 and Cy5 labelled His-tagged FtsAs (total 0.5–1 µM) or His-SUMO-Cys were added to a chamber and treated as above. […] FRAP experiments were performed as described before.
# Time-lapse videos were first intensity-corrected and contrast-enhanced to avoid bleaching effects and simplify subsequent analysis. To remove contributions of X–Y drift, the videos were processed with the Linear Stack Alignment with SIFT plugin. Proper alignment was checked with the 3TP align plugin (J. A. Parker; Beth Israel Deaconess Medical Center, Boston). Subsequently, regions of interest (ROIs) in the center of the stacks were chosen for colocalization analysis. The Pearson’s correlation coefficient (PCC) was quantified with the Image CorrelationJ 1o plugin. To extract information about the relative ratio of FtsZ/FtsA molecules (slope of linear regression), we also used the Image CorrelationJ 1o plugin. As an output, the plugin provides a scatterplot of FtsZ vs FtsA intensities, to which we fitted a linear slope y=k⋅x+d , where k is the slope and d the offset. The slope was used as an estimate for the ratio of FtsA molecules below FtsZ filaments.
# FtsZ [3] = settings: His-tagged FtsA; remark: listed apart in the source
# Method: as §1, §2
# Treadmilling dynamics, were quantified using an automated image analysis protocol previously developed by our group. To visualize colocalization of the co-treadmilling FtsZ & FtsA filaments, we used dual-colour videos obtained at an acquisition rate of one frame per 2 s. The two channels were aligned using FIJI’s 3TP align plugin. Both channels were then subjected to the image subtraction protocol and colocalization was measured as described above.
# [4] = 0.60% Tris NTA, Exp. 2 (statistical analysis)
# [5] = 0.80% Tris NTA, Exp. 1 (statistical analysis)
# [6] = 0.80% Tris NTA, Exp. 2 (statistical analysis)
# [7] = 0.80% Tris NTA, Exp. 3 (statistical analysis)
# [8] = 1.00% Tris NTA, Exp. 1 (statistical analysis)
# [9] = 1.00% Tris NTA, Exp. 2 (statistical analysis)
# [10] = 1.00% Tris NTA, Exp. 3 (statistical analysis)
# [11] = 2.00% Tris NTA, Exp. 1 (statistical analysis)
# [12] = 2.00% Tris NTA, Exp. 2 (statistical analysis)
# [13] = 2.00% Tris NTA, Exp. 3 (statistical analysis)
# [14] = […] Tris NTA, Exp. 1 (statistical analysis)
# [15] = […] Tris NTA, Exp. 3 (statistical analysis)
molecule,measurement,setting,value
"FtsA R286W (protein, Cy3 or Cy5 at the N-terminus in the labelled form (labelled CLEPTGG peptide conjugated to the 5xGly tag by sortagging); unlabelled protein also used; left off: TwinStrep-SUMO, N-terminal, cleaved | 5x) MIKATDRKLVVGLEIGTAKVAALVGEVLPDGMVNIIGVGSCPSRGMDKGGVNDLESVVKCVQRAIDQAELMADCQISSVYLALSGKHISCQNEIGMVPISEEEVTQEDVENVVHTAKSVRVRDEHRVLHVIPQEYAIDYQEGIKNPVGLSGVRMQAKVHLITCHNDMAKNIVKAVERCGLKVDQLIFAGLASSYSVLTEDERELGVCVVDIGGGTMDIAVYTGGALRHTKVIPYAGNVVTSDIAYAFGTPPSDAEAIKVRHGCALGSIVGKDESVEVPSVGGRPPWSLQRQTLAEVIEPRYTELLNLVNEEILQLQEKLRQQGVKHHLAAGIVLTGGAAQIEGLAACAQRVFHTQVRIGAPLNITGLTDYAQEPYYSTAVGLLHYGKESHLNGEAEVEKRVTASVGSWIKRLNSWLRKEF",Off binding rate,"[1]; 0.4µM, + FtsN, replicate Exp.4",2.85E-01
same,Off binding rate,"[1]; 0.4µM, + FtsN, replicate Exp.5",1.01E-01
same,Off binding rate,"[1]; 0.4µM, + FtsN, replicate Exp.6",2.02E-01
same,Off binding rate,"[1]; 0.4µM, + FtsZ, Mean, n=8",0.1794
same,Off binding rate,"[1]; 0.4µM, + FtsZ, replicate Exp.1",1.34E-01
same,Off binding rate,"[1]; 0.4µM, + FtsZ, replicate Exp.2",2.29E-01
same,Off binding rate,"[1]; 0.4µM, + FtsZ, replicate Exp.3",1.49E-01
same,Off binding rate,"[1]; 0.4µM, + FtsZ, replicate Exp.4",2.39E-01
same,Off binding rate,"[1]; 0.4µM, + FtsZ, replicate Exp.5",1.49E-01
same,Off binding rate,"[1]; 0.4µM, + FtsZ, replicate Exp.6",1.15E-01
same,Off binding rate,"[1]; 0.4µM, + FtsZ, replicate Exp.7",3.30E-01
same,Off binding rate,"[1]; 0.4µM, + FtsZ, replicate Exp.8",8.97E-02
same,"Off binding rate, mean",[1]; 0.8 µM FtsA + FtsN&Z,0.0945 s
same,"Off binding rate, mean",[1]; 0.8 µM FtsA + FtsN,0.188 s
same,"Off binding rate, mean",[1]; 0.8 µM FtsA + FtsZ,0.161 s
same,Off binding rate,"[1]; 0.8µM FtsA alone, Mean, n=8",0.3865
same,"Off binding rate, mean",[1]; 0.8 µM FtsA alone,0.386 s
same,Off binding rate,"[1]; 0.8µM FtsA alone, replicate Exp.1",6.04E-01
same,Off binding rate,"[1]; 0.8µM FtsA alone, replicate Exp.2",6.73E-01
same,Off binding rate,"[1]; 0.8µM FtsA alone, replicate Exp.3",7.27E-01
same,Off binding rate,"[1]; 0.8µM FtsA alone, replicate Exp.4",1.48E-01
same,Off binding rate,"[1]; 0.8µM FtsA alone, replicate Exp.5",5.66E-01
same,Off binding rate,"[1]; 0.8µM FtsA alone, replicate Exp.6",9.49E-02
same,Off binding rate,"[1]; 0.8µM FtsA alone, replicate Exp.7",1.46E-01
same,Off binding rate,"[1]; 0.8µM FtsA alone, replicate Exp.8",1.33E-01
same,Off binding rate,"[1]; 0.8µM, + FtsN&Z, Mean, n=4",0.0945
same,Off binding rate,"[1]; 0.8µM, + FtsN&Z, replicate Exp.1",3.85E-02
same,Off binding rate,"[1]; 0.8µM, + FtsN&Z, replicate Exp.2",2.22E-01
same,Off binding rate,"[1]; 0.8µM, + FtsN&Z, replicate Exp.3",6.03E-02
same,Off binding rate,"[1]; 0.8µM, + FtsN&Z, replicate Exp.4",5.77E-02
same,Off binding rate,"[1]; 0.8µM, + FtsN, Mean, n=3",0.1881
same,Off binding rate,"[1]; 0.8µM, + FtsN, replicate Exp.1",7.35E-02
same,Off binding rate,"[1]; 0.8µM, + FtsN, replicate Exp.2",3.72E-01
same,Off binding rate,"[1]; 0.8µM, + FtsN, replicate Exp.3",1.19E-01
same,Off binding rate,"[1]; 0.8µM, + FtsZ, Mean, n=8",0.1609
same,Off binding rate,"[1]; 0.8µM, + FtsZ, replicate Exp.1",2.88E-01
same,Off binding rate,"[1]; 0.8µM, + FtsZ, replicate Exp.2",1.14E-01
same,Off binding rate,"[1]; 0.8µM, + FtsZ, replicate Exp.3",2.71E-01
same,Off binding rate,"[1]; 0.8µM, + FtsZ, replicate Exp.4",1.12E-01
same,Off binding rate,"[1]; 0.8µM, + FtsZ, replicate Exp.5",1.44E-01
same,Off binding rate,"[1]; 0.8µM, + FtsZ, replicate Exp.6",1.39E-01
same,Off binding rate,"[1]; 0.8µM, + FtsZ, replicate Exp.7",1.37E-01
same,Off binding rate,"[1]; 0.8µM, + FtsZ, replicate Exp.8",8.23E-02
same,Off binding rate,"[1]; Fig. S3i/S3j, 0.10 µM FtsA, summary value",0.326 s⁻¹
same,Off binding rate,"[1]; Fig. S3i/S3j, 0.20 µM FtsA, summary value",0.251 s⁻¹
same,Off binding rate,"[1]; Fig. S3i/S3j, 0.40 µM FtsA, summary value",0.374 s⁻¹
same,Off binding rate,"[1]; Fig. S3i/S3j, 0.80 µM FtsA, summary value",0.386 s⁻¹
same,membrane off-rate,[1]; in the presence of FtsZ,around 0.20 s^−1
same,PCC,FtsZ [2]; [4],0.65
same,"PCC, Mean","FtsZ [2]; 0.60% Tris NTA, n = 2 (WT), 3 (R286W), sd 0.07, 0.08, p-value 0.39",0.56
same,PCC,FtsZ [2]; [5],0.79
same,PCC,FtsZ [2]; [6],0.63
same,PCC,FtsZ [2]; [7],0.69
same,"PCC, Mean","FtsZ [2]; 0.80% Tris NTA, n = 3, 3, sd 0.0141 (WT), 0.0648 (R286W), p-value 0.61",0.70
same,PCC,FtsZ [2]; [8],0.78
same,PCC,FtsZ [2]; [9],0.71
same,PCC,FtsZ [2]; [10],0.72
same,"PCC, Mean","FtsZ [2]; 1.00% Tris NTA, n = 4 (WT), 3 (R286W), sd 0.08, 0.0316, p-value 6.25E-02",0.73
same,PCC,FtsZ [2]; [11],0.63
same,PCC,FtsZ [2]; [12],0.53
same,PCC,FtsZ [2]; [13],0.55
same,"PCC, Mean","FtsZ [2]; 2.00% Tris NTA, n = 3, 3, sd 0.0143 (WT), 0.04 (R286W), p-value 1.59E-04",0.57
same,PCC,FtsZ [2]; [14],0.60
same,PCC,"FtsZ [2]; […] Tris NTA, Exp. 2 (statistical analysis)",0.62
same,PCC,FtsZ [2]; [15],0.65
same,"PCC, Mean","FtsZ [2]; […] Tris NTA, n = 3, 3, sd 0.06 (WT), 0.02 (R286W), p-value 3.86E-04",0.63
same,Differential PCC,"FtsZ [3]; 0.60% Tris NTA, Exp. 1 (statistical analysis)",0.40
same,Differential PCC,FtsZ [3]; [4],0.46
same,Differential PCC,"FtsZ [3]; 0.60% Tris NTA, Exp. 3 (statistical analysis)",0.54
same,"Differential PCC, Mean","FtsZ [3]; 0.60% Tris NTA, n = 2 (WT), 3 (R286W), sd 0.02, 0.057, p-value 0.67",0.47
same,Differential PCC,FtsZ [3]; [5],0.57
same,Differential PCC,FtsZ [3]; [6],0.48
same,Differential PCC,FtsZ [3]; [7],0.66
same,"Differential PCC, Mean","FtsZ [3]; 0.80% Tris NTA, n = 3, 3, sd 0.05 (WT), 0.0749 (R286W), p-value 0.13",0.57
same,Differential PCC,FtsZ [3]; [8],0.60
same,Differential PCC,FtsZ [3]; [9],0.56
same,Differential PCC,FtsZ [3]; [10],0.51
same,"Differential PCC, Mean","FtsZ [3]; 1.00% Tris NTA, n = 3, 3, sd 0.12 (WT), 0.0377 (R286W), p-value 5.89E-02",0.56
same,Differential PCC,FtsZ [3]; [11],0.44
same,Differential PCC,FtsZ [3]; [12],0.34
same,Differential PCC,FtsZ [3]; [13],0.36
same,"Differential PCC, Mean","FtsZ [3]; 2.00% Tris NTA, n = 3, 3, sd 0.0469 (WT), 0.04 (R286W), p-value 2.27E-03",0.38
same,Differential PCC,FtsZ [3]; [14],0.34
same,Differential PCC,FtsZ [3]; [15],0.37
same,"Differential PCC, Mean","FtsZ [3]; […] Tris NTA, n = 3, 3, sd 0.0371 (WT), 0.02 (R286W), p-value 5.70E-04",0.36

# From paper PMC9098913, “In vitro reconstitution of Escherichia coli divisome activation” (Nature Communications, 2022)
